Experimental data reported in article PMC5245964.

Legend:
Experiment in all cases: AUC; sedimentation velocity, 42,000 rpm, 20°C, 0.3–0.5 mg/mL in buffer HST300, continuous c(s) distribution (SEDFIT)
[1] = target: MBP-Mis18β (insect-cell-expressed) (human) (UniProt O43482)
[2] = target: Mis18α:Mis18β complex (insect-cell-expressed) (human) (UniProt Q9NYP9); settings: scale: M18BP1^1–140-MBP per Mis18α:Mis18β hexamer
[3] = target: 6His-Mis18β (insect-cell-expressed) (human) (UniProt O43482)
[4] = target: Mis18β (insect-cell-expressed, untagged) (human) (UniProt O43482)
Mis18β (insect-cell-expressed, untagged) (human), sequence (O43482 whole entry): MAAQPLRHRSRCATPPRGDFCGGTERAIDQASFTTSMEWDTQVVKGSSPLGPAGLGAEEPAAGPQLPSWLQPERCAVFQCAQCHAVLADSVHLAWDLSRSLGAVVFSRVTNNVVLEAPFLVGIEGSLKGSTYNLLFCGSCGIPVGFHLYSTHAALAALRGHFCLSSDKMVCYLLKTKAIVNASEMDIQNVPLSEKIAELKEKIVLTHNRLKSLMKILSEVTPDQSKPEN

Mis18α (insect-cell-expressed, 6His cleaved), sequence (Q9NYP9 whole entry): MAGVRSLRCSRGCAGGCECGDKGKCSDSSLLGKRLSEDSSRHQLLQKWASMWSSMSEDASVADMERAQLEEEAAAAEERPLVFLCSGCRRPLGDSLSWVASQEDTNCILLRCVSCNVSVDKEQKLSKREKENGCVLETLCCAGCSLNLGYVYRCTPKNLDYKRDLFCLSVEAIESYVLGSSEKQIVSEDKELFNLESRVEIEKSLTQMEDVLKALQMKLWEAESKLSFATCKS
MBP-Mis18α (insect-cell-expressed), sequence (Q9NYP9 whole entry): as above
6His-Mis18α (insect-cell-expressed), sequence (Q9NYP9 whole entry): as above
Mis18α:Mis18β complex (insect-cell-expressed) (human), sequence (Q9NYP9 whole entry, chain 1 of 2): as the sequence (Q9NYP9 whole entry) above
Mis18α:Mis18β complex (insect-cell-expressed) (human), sequence (O43482 whole entry, chain 2 of 2, further chain): as the sequence (O43482 whole entry) above
6His-Mis18β (insect-cell-expressed) (human), sequence (O43482 whole entry): as above
MBP-Mis18β (insect-cell-expressed) (human), sequence (O43482 whole entry): as above
M18BP1^1–140-MBP, sequence (Q6P0N0 1-140): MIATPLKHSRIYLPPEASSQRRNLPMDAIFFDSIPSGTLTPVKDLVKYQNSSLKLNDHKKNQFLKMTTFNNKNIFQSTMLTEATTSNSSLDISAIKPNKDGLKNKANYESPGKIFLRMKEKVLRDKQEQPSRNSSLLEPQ

6His-Mis18α (insect-cell-expressed) (from UniProt Q9NYP9 1-233) (natural protein)
stoichiometry N (MBP-Mis18β per complex) [1]: 2

M18BP1^1–140-MBP (from UniProt Q6P0N0 1-140) (domain or fragment)
stoichiometry N [2]: 2

MBP-Mis18α (insect-cell-expressed) (from UniProt Q9NYP9 1-233) (natural protein)
stoichiometry N (MBP-Mis18α per complex) [3]: 4

Mis18α (insect-cell-expressed, 6His cleaved) (from UniProt Q9NYP9 1-233) (natural protein)
stoichiometry N (Mis18α per Mis18β (4:2 hexamer)) [4]: 2
